This sample holds only a part of the variants without activity.
Assays:
biotinyl-Phe-oxazolone = test: self-aminoacylation, catalytic enhancement (BFO) (fold over background); higher = more active; k-Seq, kA / k0A0; sequences stand for … in GGGAAUGGAUCCACAUCUACGAAUUC…UUCACUGCAGACUUGACGAAGCUG
Outline: (§1)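 Mutagenized RNA pools (0.43 μM; 21-nt variable region) were treated with 2–1250 μM of each biotinyl-aminoacyl-oxazolone. Conditions were 50 μL HEPES/NaCl/KCl/MgCl2/CaCl2 buffer, 5% acetonitrile, pH 6.9–7.0, room temperature, 90 minutes. Catalytic enhancement, the median kA relative to the uncatalyzed rate, was derived from streptavidin capture, qPCR and Illumina sequencing.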

biotinyl-Ile-oxazolone = test: self-aminoacylation, catalytic enhancement (BIO) (fold over background); higher = more active; k-Seq, kA / k0A0; sequences stand for … in GGGAAUGGAUCCACAUCUACGAAUUC…UUCACUGCAGACUUGACGAAGCUG
Outline: as §1

biotinyl-Met-oxazolone = test: self-aminoacylation, catalytic enhancement (BMO) (fold over background); higher = more active; k-Seq, kA / k0A0; sequences stand for … in GGGAAUGGAUCCACAUCUACGAAUUC…UUCACUGCAGACUUGACGAAGCUG
Outline: as §1

biotinyl-Val-oxazolone = test: self-aminoacylation, catalytic enhancement (BVO) (fold over background); higher = more active; k-Seq, kA / k0A0; sequences stand for … in GGGAAUGGAUCCACAUCUACGAAUUC…UUCACUGCAGACUUGACGAAGCUG
Outline: as §1

biotinyl-Leu-oxazolone = test: self-aminoacylation, catalytic enhancement (BLO) (fold over background); higher = more active; k-Seq, kA / k0A0; sequences stand for … in GGGAAUGGAUCCACAUCUACGAAUUC…UUCACUGCAGACUUGACGAAGCUG
Outline: as §1

biotinyl-Trp-oxazolone = test: self-aminoacylation, catalytic enhancement (BWO) (fold over background); higher = more active; k-Seq, kA / k0A0; sequences stand for … in GGGAAUGGAUCCACAUCUACGAAUUC…UUCACUGCAGACUUGACGAAGCUG
Outline: as §1

| Sequence | self-aminoacylation (biotinyl-Phe-oxazolone) | self-aminoacylation (biotinyl-Ile-oxazolone) | self-aminoacylation (biotinyl-Met-oxazolone) | self-aminoacylation (biotinyl-Val-oxazolone) | self-aminoacylation (biotinyl-Leu-oxazolone) | self-aminoacylation (biotinyl-Trp-oxazolone) |
| --- | --- | --- | --- | --- | --- | --- |
| CUACUUCAAACAAGCGGUCUA [Fam1A.1 aminoacylation ribozyme variant] | 0.85 | 0.936 | 0.838 | 0.707 | 0.73 | 0.669 |
| CCACACUUCAAGCUAUCGGUU [Fam1B.1 aminoacylation ribozyme variant] | 0.942 | 1.29 | 1.18 | 1.43 | 1.12 | 0.897 |
| UAGUAUGCUAAUAGUCGCAAG [Fam3.1 aminoacylation ribozyme variant] | 2 | 1.62 | 1.28 | 1.13 | 1.57 | 1.68 |
| CCACACUUCAACCAAUCUGUC [Fam1B.1 aminoacylation ribozyme variant] | 0.77 | 0.426 | 0.419 | 0.607 | 0.377 | 0.369 |
| CUACUUCAAACAAUCGGAUUG [Fam1A.1 aminoacylation ribozyme variant] | 2.03 | 0.999 | 0.953 | 0.89 | 0.719 | 1.3 |
| CUACUUCAAACAAUCGGUCCG [Fam1A.1 aminoacylation ribozyme variant] | 8.83 | 0.711 | 0.745 | 0.749 | 0.862 | 5.32 |
| AUUACCCUGUUCAUCCAGUGA [Fam2.1 aminoacylation ribozyme variant] | 23 | 3.76 | 5.95 | 3.52 | 5.85 | 8.43 |
| CUACUUCAAACACUCGGUCUC [Fam1A.1 aminoacylation ribozyme variant] | 0.739 | 0.998 | 0.794 | 0.808 | 0.953 | 0.9 |
| CUACUUCAAAGAUUCGGUCUG [Fam1A.1 aminoacylation ribozyme variant] | 0.503 | 1.01 | 1.09 | 1.08 | 0.97 | 0.679 |
| GUUACACUGGUCAUCGAGUGA [Fam2.1 aminoacylation ribozyme variant] | 28.9 | 4.91 | 6.79 | 4.18 | 6.76 | 8.81 |
| CUGCUUUAAACAAUCGGUCUG [Fam1A.1 aminoacylation ribozyme variant] | 2 | 0.889 | 0.879 | 0.79 | 0.754 | 1.87 |
| ACUACCCUGGUCACCGAGUGA [Fam2.1 aminoacylation ribozyme variant] | 46.5 | 4.67 | 9.06 | 4.77 | 11.2 | 9.34 |
| AUGCACCUAGGGCAUCGGGUG [Fam2.2 aminoacylation ribozyme variant] | 30.6 | 2.89 | 3.04 | 3.46 | 3.16 | 4.75 |
| UUUUCCCUGGUCAUCGAGUGA [Fam2.1 aminoacylation ribozyme variant] | 16.5 | 5.39 | 11.1 | 5.81 | 11.1 | 14.3 |
| CCACACUUCCAGCAAUCGGAC [Fam1B.1 aminoacylation ribozyme variant] | 0.784 | 0.999 | 0.797 | 1.1 | 0.592 | 0.846 |
| GCACACUUCAAUCAAUCGGUC [Fam1B.1 aminoacylation ribozyme variant] | 34.4 | 1.73 | 1.58 | 1.69 | 1.98 | 26.4 |
| CUACUUCAAACAAUUGGUCGG [Fam1A.1 aminoacylation ribozyme variant] | 0.858 | 1.25 | 0.91 | 1.11 | 1.18 | 0.932 |
| AAGUUUGCUAAUAUUCGCAAU [Fam3.1 aminoacylation ribozyme variant] | 1.32 | 1.31 | 1.11 | 1.05 | 1.16 | 1.33 |
| CGACACUUCAAGGAAUCGGUC [Fam1B.1 aminoacylation ribozyme variant] | 3.19 | 2.39 | 1.42 | 1.73 | 1.89 | 1.84 |
| AUUACCCUGGAAAUCGAGUGA [Fam2.1 aminoacylation ribozyme variant] | 149 | 8.3 | 19.4 | 8.39 | 20.8 | 22.6 |
| UUUCACAUAGGUCAUCGGGUG [Fam2.2 aminoacylation ribozyme variant] | 56.6 | 5.3 | 7.92 | 5.12 | 8.51 | 7.61 |
| ACUACCCUGGUCUUCGAGUGA [Fam2.1 aminoacylation ribozyme variant] | 11.5 | 2.45 | 4.26 | 2.72 | 4.54 | 5.15 |
| CCACACUUCGAGCCAUCGGUC [Fam1B.1 aminoacylation ribozyme variant] | 1.27 | 1.84 | 1.27 | 1.87 | 1.58 | 1.02 |
| CCACACUUCAAGCAUUGGGUC [Fam1B.1 aminoacylation ribozyme variant] | 0.918 | 1.04 | 1.03 | 1.4 | 0.83 | 0.956 |
| AAUCACCUAGAUCAUCGGGUG [Fam2.2 aminoacylation ribozyme variant] | 9.55 | 2.75 | 2.41 | 2.68 | 2.55 | 3.99 |
| AUUACCGUGGUAAUCGAGUGA [Fam2.1 aminoacylation ribozyme variant] | 43.2 | 3.63 | 8.54 | 4.18 | 9.2 | 9.95 |
| AUUCCCCUAGGUCAGCGGGUG [Fam2.2 aminoacylation ribozyme variant] | 61.3 | 8.05 | 11.1 | 7.83 | 14.1 | 11 |
| AUUACGAUGGUCAUCGAGUGA [Fam2.1 aminoacylation ribozyme variant] | 12.3 | 2.99 | 3.43 | 3.17 | 4.54 | 4.79 |
| AUUCACCUAGGUCAUGGGGUG [Fam2.2 aminoacylation ribozyme variant] | 39.9 | 3.7 | 5.76 | 3.56 | 7.33 | 5.27 |
